To fix the notation:
B1: Twister Ribozyme (parent)
chain: AACACUGCCAAUGCCGGUCCCAAGCCCGGAUAAAAGUGGAGGGGGCGG

54 variants from the RNAGym collection of RNA variant scans (doi:10.7554/elife.80360) can be followed below.

The variants in the data set derive from B1. Put plainly: self-cleavage, relative activity (ratio to wild type); higher = more cleavage; co-transcriptional.
Consider AACACUGCCAAUGCCGGUCCCAAGCCCCGAUAAAAGUUGAGGGGGCGG [G28C G38U], for which the self-cleavage amounted to 0.64.
The result for AACACUGCCAAGGCCGGUCCCAAGCCCGGAUAAAAGUGGAGGGUGCGG [U12G G44U] reads 0.799.
The result for AACACUGCAAAUGCCGGUCCCAAGCCCGGAUAAUAGUGGAGGGGGCGG [C9A A34U] reads 0.535; that for AACACUGGCAAUGCCGGGCCCAAGCCCGGAUAAAAGUGGAGGGGGCGG [C8G U18G], 0.0605; that for AACACUGUCAAUGCCGGUCCCAAGCCCGGAUAAAAGUGGAUGGGGCGG [C8U G41U], 0.117.
In the case of AACACUGCCAAUGCCGGUCCCAAGCCCGGAUAAAAGUGGAAGGGGCUG [G41A G47U], the self-cleavage is 0.236.
Turning to AACACUGCCAAUGCCGGUCCCAAGCCCGGAUAAAAGUGAAGUGGGCGG [G39A G42U], the self-cleavage was determined as 0.164.
AACACUGCCAAUGCCUGUCCCAAGCCCGGAUAAAAUUGGAGGGGGCGG [G16U G36U]: the self-cleavage worked out at 0.124.
In the case of AACACUGCCAAUGCCGGUCCCAAGACCGGAUAAAAGUGGAGGGGGGGG [C25A C46G] it was 0.0534; in that of AACACUGCCAAUGCCGGUCCCAAGCGCAGAUAAAAGUGGAGGGGGCGG [C26G G28A], 0.101.
For AACACUGCCAAUUCCGGUUCCAAGCCCGGAUAAAAGUGGAGGGGGCGG [G13U C19U], the self-cleavage was determined as 0.0924.
In the case of AACACUGCCAAUUCCGGUACCAAGCCCGGAUAAAAGUGGAGGGGGCGG [G13U C19A] it was 0.0828; in that of AACCCUGUCAAUGCCGGUCCCAAGCCCGGAUAAAAGUGGAGGGGGCGG [A4C C8U], 0.108; in that of CACAAUGCCAAUGCCGGUCCCAAGCCCGGAUAAAAGUGGAGGGGGCGG [A1C C5A], 0.198.
The result for AACACUGCUAAUGCCGGUCCCAAGCCCGGAUAAAAGUGGAGGGGACGG [C9U G45A] reads 0.547; that for AACACUGCCAAUGCCGGUCCCAAGCCCGGUUAAAAGUGGAGGCGGCGG [A30U G43C], 0.229.
The result for AAUACUGCCAAUGCCGGUGCCAAGCCCGGAUAAAAGUGGAGGGGGCGG [C3U C19G] reads 0.106; that for AACACUGCCUAUGCCGGUCCCAAGCCCGUAUAAAAGUGGAGGGGGCGG [A10U G29U], 0.939.
In the case of AACACAGCCAAUGCCGGUCCCAAGCCCAGAUAAAAGUGGAGGGGGCGG [U6A G28A], the self-cleavage worked out at 0.616.
In the case of AAGACUGCCAAUGCGGGUCCCAAGCCCGGAUAAAAGUGGAGGGGGCGG [C3G C15G], the self-cleavage was found to be 0.133.
In the case of AACACUGCCAAUGCCGGUCCCAAGCCCGGAUAAAAGUGGAGGGGACGG [G45A] it was 0.939.
Turning to CACACUGCCAAUGCCGGUCCCAAGCCCGGAUAAAAGUGGAGGGGGCGC [A1C G48C], the self-cleavage came to 0.168.
On to AACACUGCGAAUGCCGGUCCCAAGCCCGGAUAAAAGUGGAGGGGGCGA [C9G G48A], for which the self-cleavage turned out to be 0.443.
Take AACACUGCCAAUGCCGGUCCGGAGCCCGGAUAAAAGUGGAGGGGGCGG [C21G A22G]: the self-cleavage was 0.135.
Take AGCACUGCCCAUGCCGGUCCCAAGCCCGGAUAAAAGUGGAGGGGGCGG [A2G A10C]: the self-cleavage amounted to 0.322.
Consider AACACUGCCAAUGCCGGUCCCAAGCCCGGAUAAAAGAGGCGGGGGCGG [U37A A40C], for which the self-cleavage is 0.127.
In the case of AACACUGCCAAUGCCGGUCCCAAGCCCGGAUAAAAGAGGUGGGGGCGG [U37A A40U] it was 0.137; in that of AACACUGCCAAAGCCGGUCCCAAGCCCGGAUAGAAGUGGAGGGGGCGG [U12A A33G], 0.969; in that of AACACUGCCAAUGCCGGUCGCAAGCCCGGAUAAAAGAGGAGGGGGCGG [C20G U37A], 0.0911.
AACACUGCCAAUGCCGGUCCCAAGCCCGGAUAAUAGUGGAAGGGGCGG [A34U G41A]: the self-cleavage stood at 0.163.
For AACACAGCCAAUGCCGGUCCCAAGCCUGGAUAAAAGUGGAGGGGGCGG [U6A C27U], the self-cleavage came out at 0.682.
In the case of AACAAUGCCAAUGCCGGUCCCAAACCCGGAUAAAAGUGGAGGGGGCGG [C5A G24A] it was 0.0547; in that of AACACUGCCAAUGCCGGUCCCAAGCCCGGAUAAAAGGGGAGGGAGCGG [U37G G44A], 0.703.
The result for AACACUGCCAAUGCCGGUCGCAAGCCCGGAUAAAAGUGGCGGGGGCGG [C20G A40C] reads 0.109.
Turning to AACACUGCCAAUGCCGGUCCCAUGCCCGGAAAAAAGUGGAGGGGGCGG [A23U U31A], the self-cleavage was 0.502.
As to AACACUGCCUAUGCCGGUCCCAAGCCCGGAUAAUAGUGGAGGGGGCGG [A10U A34U], the self-cleavage was 0.818.
In the case of AACACUGCCAAUGCCGGUCCCAAGCCCUGAUAAAAGUGGAGCGGGCGG [G28U G42C] it was 0.407; in that of AACACUGCCCAUGCCGGUCCCAACCCCGGAUAAAAGUGGAGGGGGCGG [A10C G24C], 0.0859.
Take AACACUGUCAAUGCCGGUCCCAAGCCCGGAUUAAAGUGGAGGGGGCGG [C8U A32U]: the self-cleavage was 0.515.
The result for AACACUGCCAAUGGCGGUCCCAAGCCCGGAUAAAAGUGGAUGGGGCGG [C14G G41U] reads 0.111; that for UACACUGCCAAUGCCGGUCCCAAGCCCGGACAAAAGUGGAGGGGGCGG [A1U U31C], 0.0703; that for AACACUGCCAAUGCCGGUCCCAAGCCCGGAAAAAAGUGAAGGGGGCGG [U31A G39A], 0.343.
AACACUGCCAAUGCCGGUCCCAAACCCGGAUAAAAGUGGCGGGGGCGG [G24A A40C]: the self-cleavage turned out to be 0.105.
In the case of AACACUGUCAAUGCCGGUCCCAGGCCCGGAUAAAAGUGGAGGGGGCGG [C8U A23G], the self-cleavage came out at 0.107.
In the case of AACACUGCCAAUGCCGGUCCCAAGCCGGGUUAAAAGUGGAGGGGGCGG [C27G A30U], the self-cleavage came to 0.0941.
With AACACUGCCAAGGCCUGUCCCAAGCCCGGAUAAAAGUGGAGGGGGCGG [U12G G16U], the self-cleavage is 0.937.
GACACUGCCAAUGCCGGGCCCAAGCCCGGAUAAAAGUGGAGGGGGCGG [A1G U18G]: the self-cleavage stood at 0.136.
In the case of GACACUGCCAAUUCCGGUCCCAAGCCCGGAUAAAAGUGGAGGGGGCGG [A1G G13U] it was 0.129; in that of ACCACUGCCAAUGCCGGUCCCAAGCCCGGAUAAAUGUGGAGGGGGCGG [A2C A35U], 0.0477; in that of AACACUGCAAAUGCCGGUCCCAAGCUCGGAUAAAAGUGGAGGGGGCGG [C9A C26U], 0.06.
In the case of AACACUGCCAAUGCCGGUCCCAAGCCGGGAUAAAAGUGGAGGGGGGGG [C27G C46G] it was 0.1.
In the case of AACACUGCCAAUUCCGGUCCCAAGCCCGGAUAAAAGUGGAAGGGGCGG [G13U G41A] it was 0.0904; in that of AACACUGCCAAUGCCGGUCCCAAGCCCGGAAAAAAGUGGAGGUGGCGG [U31A G43U], 0.233.
Consider AACACUGCCAAUGCCGGUCCCAAGCCCGGAUGAUAGUGGAGGGGGCGG [A32G A34U], for which the self-cleavage stood at 0.85.
